Test results published in paper PMC10716038, “Talin and kindlin use integrin tail allostery and direct binding to activate integrins” (Nature Structural & Molecular Biology, 2023).
“And” between values parts separate entries of the source, which are not always exact repeats. Equal values may be shown once. No end group written: not given here.

Legend:
Conditions in all cases: both partners purified
[1] = molecular target: T1, talin-1 head domain (THD1) (UniProt P26039 1-405); assay: MST; apparent; THD1 titrated to 488–β1-CT or 488–β3-CT in the presence of 300–400 µM β-CT-binding-impaired KIND2 Q614A,W615A (QW/AA); MST buffer
T1 construct: talin-1 (TLN1) head domain (THD), residues 1-405; murine TLN1 cDNA is named only for the cell lines; also called WT; source: E. coli (DE3) Rosetta 2, purified (IMAC, SEC); not shown: His10-SUMO, N-terminal, cleaved

kindlin-2 (KIND2) [2] = molecular target: T2, kindlin-2 (KIND2) (UniProt Q8CIB5 1-680); assay: MST; apparent; KIND2 titrated to 488–β3-CT in the presence of 100–400 µM THD2; MST buffer
T2 construct: kindlin-2 (KIND2), recombinant; with the F1 loop and the PH domain (unlike ΔKIND2); source: E. coli Rosetta, purified (IMAC, SEC); not shown: His10-SUMO, N-terminal, cleaved
T2 sequence (looked up): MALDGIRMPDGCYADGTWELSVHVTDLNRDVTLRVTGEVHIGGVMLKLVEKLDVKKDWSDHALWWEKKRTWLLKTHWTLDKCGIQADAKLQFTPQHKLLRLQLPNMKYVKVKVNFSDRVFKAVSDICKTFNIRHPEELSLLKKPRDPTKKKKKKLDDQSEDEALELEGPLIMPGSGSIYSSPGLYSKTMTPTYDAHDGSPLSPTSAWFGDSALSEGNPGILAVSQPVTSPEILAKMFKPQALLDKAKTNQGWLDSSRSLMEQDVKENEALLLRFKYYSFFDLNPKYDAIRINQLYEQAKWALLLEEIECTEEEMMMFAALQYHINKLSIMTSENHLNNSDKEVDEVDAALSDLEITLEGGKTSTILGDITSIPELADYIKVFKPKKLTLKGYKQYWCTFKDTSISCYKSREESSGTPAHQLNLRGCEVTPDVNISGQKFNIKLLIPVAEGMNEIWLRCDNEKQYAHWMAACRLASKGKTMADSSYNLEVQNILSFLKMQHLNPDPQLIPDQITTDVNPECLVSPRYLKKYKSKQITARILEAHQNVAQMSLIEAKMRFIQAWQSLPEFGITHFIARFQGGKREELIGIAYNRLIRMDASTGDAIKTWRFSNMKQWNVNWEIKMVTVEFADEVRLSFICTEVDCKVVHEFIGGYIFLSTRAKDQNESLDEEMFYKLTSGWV

kindlin-2 (KIND2) [3] = molecular target: T2, kindlin-2 (KIND2); assay: MST; apparent; KIND2 titrated to 488–β3-CT in the presence of 120 µM THD1-K402E; MST buffer
[4] = molecular target: T1, talin-1 head domain (THD1); assay: MST; unlabelled protein titrated to 50-200 nM ATTO 488-labelled β-CT peptide, no third protein; 20 mM Tris pH 7.5, 200 mM NaCl, 1 mM TCEP, 0.05% Tween-20; Kd of individual titrations (in S0002 mean and sd, n = 2)
[5] = molecular target: T1, talin-1 head domain (THD1); assay: MST; apparent; THD1 titrated to 488–β1-CT or 488–β3-CT in the presence of 500–1,100 µM KIND2-F0; MST buffer
THD1 K402E [6] = molecular target: T3, THD1 K402E (UniProt P26039 1-405, K402E); assay: MST; unlabelled protein titrated to 50-200 nM ATTO 488-labelled β-CT peptide, no third protein; 20 mM Tris pH 7.5, 200 mM NaCl, 1 mM TCEP, 0.05% Tween-20; Kd of individual titrations (in S0002 mean and sd, n = 2)
T3 construct: talin-1 (TLN1) head domain, residues 1-405, K402E; source: E. coli (DE3) Rosetta 2, purified (IMAC, SEC); not shown: His10-SUMO, N-terminal, cleaved

THD1 K402E [7] = molecular target: T3, THD1 K402E; assay: MST; apparent; THD1 or THD1 mutants titrated to 488–β3-CT in the presence of 30-40 µM KIND2; MST buffer
KIND2 Y13A = molecular target: T4, KIND2 Y13A (UniProt Q8CIB5 1-680, Y13A); assay: MST; unlabelled protein titrated to 50-200 nM ATTO 488-labelled β-CT peptide, no third protein; 20 mM Tris pH 7.5, 200 mM NaCl, 1 mM TCEP, 0.05% Tween-20; Kd of individual titrations (in S0002 mean and sd, n = 2)
T4 construct: kindlin-2 (KIND2), recombinant, Y13A; source: E. coli Rosetta, purified (IMAC, SEC); not shown: His10-SUMO, N-terminal, cleaved
T4 sequence (looked up): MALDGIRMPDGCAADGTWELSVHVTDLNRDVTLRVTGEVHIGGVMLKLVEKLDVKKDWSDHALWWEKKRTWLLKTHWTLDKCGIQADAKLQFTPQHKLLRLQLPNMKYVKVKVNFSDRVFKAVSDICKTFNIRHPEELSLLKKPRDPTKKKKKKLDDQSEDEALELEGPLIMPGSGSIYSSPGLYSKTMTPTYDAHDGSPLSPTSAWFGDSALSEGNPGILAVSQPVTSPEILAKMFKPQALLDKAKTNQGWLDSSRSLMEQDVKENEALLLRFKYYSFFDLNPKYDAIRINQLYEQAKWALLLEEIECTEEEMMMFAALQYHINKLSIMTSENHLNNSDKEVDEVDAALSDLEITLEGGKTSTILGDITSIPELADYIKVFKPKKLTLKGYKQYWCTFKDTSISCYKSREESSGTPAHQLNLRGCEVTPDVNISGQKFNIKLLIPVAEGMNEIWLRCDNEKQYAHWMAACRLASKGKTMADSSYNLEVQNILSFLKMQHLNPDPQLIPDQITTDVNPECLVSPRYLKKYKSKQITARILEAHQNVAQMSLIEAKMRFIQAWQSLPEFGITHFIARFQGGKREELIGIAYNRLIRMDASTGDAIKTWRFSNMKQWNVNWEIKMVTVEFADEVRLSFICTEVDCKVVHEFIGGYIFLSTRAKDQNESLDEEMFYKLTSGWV

[8] = molecular target: T1, talin-1 head domain (THD1); assay: as above; remark: listed apart in the source

T3 sequence (P26039 1-405 K402E): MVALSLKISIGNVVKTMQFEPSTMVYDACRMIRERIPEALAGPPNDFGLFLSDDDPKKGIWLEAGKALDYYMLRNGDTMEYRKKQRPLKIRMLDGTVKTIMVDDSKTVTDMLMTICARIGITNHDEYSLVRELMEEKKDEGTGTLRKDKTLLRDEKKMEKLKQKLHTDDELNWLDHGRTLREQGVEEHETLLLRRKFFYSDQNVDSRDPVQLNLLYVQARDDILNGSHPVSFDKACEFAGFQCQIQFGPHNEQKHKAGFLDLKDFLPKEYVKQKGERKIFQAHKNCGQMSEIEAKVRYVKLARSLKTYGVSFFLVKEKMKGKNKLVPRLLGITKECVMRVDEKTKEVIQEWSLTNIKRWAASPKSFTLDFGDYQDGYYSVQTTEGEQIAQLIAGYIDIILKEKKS
T1 sequence (P26039 1-405): as the sequence (P26039 1-405 K402E) above, with E402K counted along it

Kd [1]: 183 µM and 137 µM and 88 µM
Kd (kindlin-2 (KIND2) [2]): 20.9 µM and 29.1 µM and 29.5 µM
Kd (kindlin-2 (KIND2) [3]): 16.4 µM and 15.8 µM and 16.7 µM
Kd [4]: 127 µM and 115 µM and 93.9 µM and 85.5 µM
Kd [5]: 105 µM and 87.6 µM
Kd (THD1 K402E [6]): 37.8 µM and 35.5 µM and 32.5 µM
Kd (THD1 K402E [7]): 54.3 µM and 67.7 µM and 70.3 µM
Kd (KIND2 Y13A): 9.85 µM and 9.2 µM and 9.18 µM and 7.89 µM
Kd [8]: 81.6 µM
B1: ATTO 488-labeled integrin β3 cytoplasmic tail (488–β3-CT) (peptide, UniProt O54890 741-787, looked up)
peptide: {ATTO 488}-KLLITIHDRKEFAKFEEERARAKWDTANNPLYKEATSTFTNITYRGT
notes: integrin β3 cytoplasmic tail (β3-CT); source: synthetic peptide (MPIB Core Facility)
